Earlier results, collected in publication PMC5536120.

What was measured:
[1] = target: knob B peptide GHRP (Homo sapiens) (UniProt P02675)
[2] = target: Fibrin central fragment central region (knobs A) (Homo sapiens) (UniProt P02671)

Chain of UniProt P02675 (P02675 whole entry, looked up, the tested form may be a part): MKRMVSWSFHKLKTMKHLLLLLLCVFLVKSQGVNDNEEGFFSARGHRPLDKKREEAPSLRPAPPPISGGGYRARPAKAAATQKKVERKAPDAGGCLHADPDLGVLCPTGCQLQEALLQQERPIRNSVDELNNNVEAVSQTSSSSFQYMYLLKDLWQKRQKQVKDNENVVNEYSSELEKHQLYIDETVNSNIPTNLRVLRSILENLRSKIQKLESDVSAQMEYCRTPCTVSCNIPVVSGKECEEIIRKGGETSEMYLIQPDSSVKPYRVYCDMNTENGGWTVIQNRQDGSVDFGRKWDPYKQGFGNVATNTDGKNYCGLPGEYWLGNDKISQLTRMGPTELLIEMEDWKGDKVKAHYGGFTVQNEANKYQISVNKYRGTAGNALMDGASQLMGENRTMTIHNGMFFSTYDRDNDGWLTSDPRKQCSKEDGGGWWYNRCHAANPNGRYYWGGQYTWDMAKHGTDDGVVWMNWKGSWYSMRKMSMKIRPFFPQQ

- Kd [1]: 140 µM
- Kd [2]: 5.8 µM
Substance: Fibrinogen (from UniProt P02671)
